Values of other authors as cited in article PMC8557391.

Molecular target: Keap1 (Homo sapiens) (UniProt Q14145)
Assay: FP

Chain of UniProt Q14145 (Q14145 whole entry): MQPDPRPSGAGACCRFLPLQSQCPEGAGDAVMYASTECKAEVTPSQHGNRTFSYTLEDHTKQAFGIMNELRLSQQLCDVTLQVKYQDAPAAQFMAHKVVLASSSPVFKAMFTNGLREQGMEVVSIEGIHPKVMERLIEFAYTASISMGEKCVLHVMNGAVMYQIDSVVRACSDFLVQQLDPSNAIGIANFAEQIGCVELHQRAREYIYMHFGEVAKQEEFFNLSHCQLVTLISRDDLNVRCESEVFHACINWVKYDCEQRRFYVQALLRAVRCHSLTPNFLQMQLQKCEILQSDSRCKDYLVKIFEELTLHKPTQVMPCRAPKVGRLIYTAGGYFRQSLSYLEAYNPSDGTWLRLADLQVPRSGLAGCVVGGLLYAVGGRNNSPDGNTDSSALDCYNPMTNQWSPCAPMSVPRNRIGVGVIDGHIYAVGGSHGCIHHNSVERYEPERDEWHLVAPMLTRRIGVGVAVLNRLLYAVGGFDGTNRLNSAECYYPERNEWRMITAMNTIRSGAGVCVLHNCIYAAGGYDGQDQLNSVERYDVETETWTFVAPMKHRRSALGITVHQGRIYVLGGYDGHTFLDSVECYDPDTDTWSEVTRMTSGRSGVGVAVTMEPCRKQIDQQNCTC

Substance | Kd
Nrf2 9mer peptide (from UniProt Q16236) | 54 nM
Nrf2 10mer peptide (from UniProt Q16236) | 51 nM
